This note sets out measurements from the nanobody polyreactivity screen of Harvey et al. (2022).

The data set can be described thus: yeast display, Sf9 membrane polyspecificity reagent, FACS + sequencing; frameworks hold sequencing errors. An outline of the steps: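 Nanobodies from a synthetic yeast display library (Saccharomyces cerevisiae BJ5465), induced 36–48 hours with galactose, were stained 1 hour at 4 °C with 10% biotinylated, detergent-solubilized Sf9 membrane reagent, enriched on streptavidin microbeads, then FACS-sorted. Anti-HA (expression) and streptavidin (reagent binding) fluorescence set low and high (top ~1%) gates. Polyreactivity labels come from the gate of origin. Genes were colony-PCR amplified, MiSeq 2 × 250 sequenced and filtered by CDR length.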
“QVQLVESGGGLVQAGGSLRLSCAASGSIFGYYAMGWYRQAPGKERELVAAISSGGNTNYADSVNGRFTISRDNAKITVYLQMTSLKPEDTAVYDCATRARYKRIRYDYWGQGTKVTVSS”: the “polyreactivity (PSR sort gate)” value is “high polyreactivity”.
As for “QVQLVESGGGLVQAGGSLRLSCAASGSIFGYYAMGWYRQAPGKERELVAAISWSGGRTYYADSVKGRFTISRDNAKNTVYLQMNSLKPEDTAVYYCNARWRSGPRAYDYWGQGTQVTVSS”, the entry is “high polyreactivity”; as for “QVQLVESGGGLVQAGGSLRLSCAASGSIFGYYAMGWYRQAPGKERELVASIRRGSSTNYADSVKGRFTISRDNAKHTVYLQMNSLKPEDTAVYYCNAVLLSYDGRGYSNLYDYWGQGTQVTVSS”, “low polyreactivity”.
As for “QVQLVESGGGLVQAGGSLRLSCAASGSIFGYYAMGWYRQAPGKERELVASISGSGGTTYYADSVKGRFTISRDNAKNTVYLQMNSLKPEDTAVYYCAARRSIYGYPFVTSRRGYWGQGTQVTVSS”, the entry is “high polyreactivity”.
As for “QVQLVESGGGLVQAGGSLRLSCAASGSIFGYYAMGWYRQAPGTERELVAAINSDGSTDYADSVKGRFTISRDNAKNTVYLQMNSLKPEDTAVYYCATRYYSIFTFFISYTYDYWGQGTQVTVSS”, the entry is “low polyreactivity”.
With “QVQLVESGGGLVQAGGSLRLSCAASGSIFGYYAMGWYRQEPGKERELVAAITRSGGSTYYADSVKGRFTISRDNAKNPVYLQMNSLKPEDTAVYYCNAVRYAVRLPAFPGYDYWGQGTQVTVSS”, the “polyreactivity (PSR sort gate)” value is “high polyreactivity”.
Regarding “QVQLVESGGGLVQAGGSLRLSCAASGSIFGYYSMGWYRQAPGKERELVAAISRSGTRTYYADSVKGRFTISRDNAKNTVYVQMNSLKPEDTAVYYCNAVQQYYGTWGYGYWGQGTQVSVSS”, the “polyreactivity (PSR sort gate)” value is recorded as “high polyreactivity”.
As for “QVQLVESGGGLVQAGGSLRLSCAASGSIFGYYTMGWYRQAAGKERELVAAITLDTGNTYYADSVKGRLTITRDNAKNTVYLQMNSLKPEDTAVYYCNTDYYSGYIARWSFDYWGQGTQVTVSS”, the entry is “low polyreactivity”; as for “QVQLVESGGGLVQAGGSLRLSCAASGSIFGYYVMGWYRQAPGKERELVAAITKSGGSTYYADSVKGRFTISRDNAKNTVYLQKNSLKPEDTAVYYCAKRFYSTGYGRFDYWGQGTQVTVSS”, “high polyreactivity”; as for “QVQLVESGGGLVQAGGSLRLSCAASGSIFHANAMGWYRQAPGKERELVAVISQGGGSTYYADSVKGRFTISRDNAKNTVYLQMNSLKPEDTAFYYCAAYYYYSAYGDDYWGQGTQVTVSS”, “high polyreactivity”.
As for “QVQLVESGGGLVQAGGSLRLSCAASGSIFHAYAMGWYRQAPGKERELDAAISYTGGTYYADSVKGRFTISRDNAKNTVYLQMNSLKPEDTAVYYCAIVTRYLHIGVPYVEFDYWGQGTQVTVSS”, the entry is “low polyreactivity”; as for “QVQLVESGGGLVQAGGSLRLSCAASGSIFHFYAMGWYRQAPGKERELVAAITSGTSTYYADSVKGRFTISRDNAKNTVYLQMNSLKPEDTAVYYCAAEASHYYYNAYPSYGGSDYWGQGTQVTVSS”, “low polyreactivity”; as for “QVQLVESGGGLVQAGGSLRLSCAASGSIFHFYVMGWYRQAPGKERELVAGISSSGGRTYYADSVKGRFTISRDNAKNTFYLQMNSLKPEDTAVYYCANDMYHSVGRYDYWGQGTQVTVSS”, “low polyreactivity”.
Next, “QVQLVESGGGLVQAGGSLRLSCAASGSIFHGNAMGWYRQAPGKERELVAAITARGGRTYYADSVKGRFTISRDNAKNTVYLQMNSLKPEDTAVYYCNAVHRYERDYWGQGTQVTVSS”: “high polyreactivity”.
For the sequence “QVQLVESGGGLVQAGGSLRLSCAASGSIFHGYAMGWYRQAPGKERELVAAITYSGGRTYYADSVKGRFTISRDNAKNTVYLQMNSLKPEDTAVYYCAALTRRVKKYDYWGQGTQVTVSS”, the “polyreactivity (PSR sort gate)” value was “high polyreactivity”.
As for “QVQLVESGGGLVQAGGSLRLSCAASGSIFHGYTMGWYIQSPGKERELVAAISRRGDSTYYADSVKGRFTISRDNAKNTVYLQMNSLKPEDTAVYYCATVFYRTRYVPYGYWGQGTQVTVSS”, the entry is “low polyreactivity”; as for “QVQLVESGGGLVQAGGSLRLSCAASGSIFHNYDMGWYRQAPGKERELVADISRGGDTNYADSVKGRFTISRDNAKNTVYLQMNSLKPEDTAVYYCNATYWILDSPWWRETFDYWGQGTQVTVSS”, “low polyreactivity”; as for “QVQLVESGGGLVQAGGSLRLSCAASGSIFHPYTMGWYRQAPGKERELVAAISWSGGNTNYADSVNGRFTISRDNAKNTVYLQMNSLKPDDTAVYYCNKATNLSGGYDSWGQGTQVTVSS”, “low polyreactivity”.
Consider “QVQLVESGGGLVQAGGSLRLSCAASGSIFHPYTMGWYRQAPGKERELVAGISQSSDSTYYADSVKGRFTISRDNAKNTVYLQMNSLKPEDTAVYYCNRDNDWPLSVVEVDYWGQGTQVTVSS”, for which the “polyreactivity (PSR sort gate)” value is reported as “low polyreactivity”.
As for “QVQLVESGGGLVQAGGSLRLSCAASGSIFHSYAMGWYRQAPGKERELVAGITSSCDRTNYADSVKGRFTISRDNAKITVYLQMNSLKPEDNAVYYCAAVARYPKGRTRRGYGYWGQGTQVTVSS”, the entry is “high polyreactivity”.
Regarding “QVQLVESGGGLVQAGGSLRLSCAASGSIFHTYVMGWYRQAPGKERELVASITRSGGSTYYADSVKGRFTISRDNAKKTVYLQMNSLKPEDTAVYYCAATYRTANHRYYYWGQGTQVTVSS”, the “polyreactivity (PSR sort gate)” value is reported as “high polyreactivity”.
Next, “QVQLVESGGGLVQAGGSLRLSCAASGSIFHVNAMGWYRQAPGKERELVAGISDGGSTYYADSVKGRFTISRDNAKNTVYLQMNSLKPEDTAVSYCAAESEQWYSYVLSYVWEYDYWGQGTHVTVSS”: “low polyreactivity”; “QVQLVESGGGLVQAGGSLRLSCAASGSIFHWNAKGWYRQAPGKERELVAGITTSGGTTYYADSVKGRFTISRDNAKNTVYLQMNSLKPEDTAVYYCAARIIRWRPRWPSYGKYDYWGQGTQVTVSS”: “low polyreactivity”; “QVQLVESGGGLVQAGGSLRLSCAASGSIFHWYAMGWYRQAPGKERELVAAITWSGDTTYYADSVKGRFTISRDNAKNTVYLQMNSLKPEDTAVYYCAVERDDQDYDYWGQGTQVTVSS”: “low polyreactivity”.
Next, “QVQLVESGGGLVQAGGSLRLSCAASGSIFHYNAMGWYRQAPGKERELVAAISTSGGSTYYADSVKGRFTISRDNAKNTVYLQMNSLKPEDTAVYYCNAYHRYRRLEMYYWGQGTQVTVSS”: “high polyreactivity”; “QVQLVESGGGLVQAGGSLRLSCAASGSIFHYNAMGWYRQAPGKERELVARISVNGGRTYYADSVKGRFTISRDNAKNTVYLQMNSLKPEDTEVYYCAVEGVWRSFFYGYDSWGQGTQVTVSS”: “low polyreactivity”; “QVQLVESGGGLVQAGGSLRLSCAASGSIFHYYAMGWYRPAPGKERELVAAISWSGGRTYYADSVKGRFTISRDNAKNTVYLQMNSLKPEDTAVYYCAAARGESYEFYSWGQGTQVTVSS”: “high polyreactivity”.
Next, “QVQLVESGGGLVQAGGSLRLSCAASGSIFIANAMGWYRQAPGKERELVATISWSGGRTYYADSVKGRFTISRDNAKNTVYLQMNSLKPEDTAVYYCAAVYGAYDSGYKYNYWGQGTQVTVSS”: “high polyreactivity”.
As for “QVQLVESGGGLVQAGGSLRLSCAASGSIFIFNAMGWYRQAPGKEREFVARIRRDSSTYYADSVKGRFTISRDNAKNTVYLQMNSLKPEDTAVYYCADKRVYRRVELNSWGQGTQVTVSS”, the “polyreactivity (PSR sort gate)” value is “low polyreactivity”.
As for “QVQLVESGGGLVQAGGSLRLSCAASGSIFIFYAMGWYRQAPGNERELVADITSDGASTYYADSVKGRFTISRDNAKNTVYLQMNSLKPEDTAVYYCAADYIDSSAYDYWGQGTQVTVSS”, the entry is “low polyreactivity”.
As to “QVQLVESGGGLVQAGGSLRLSCAASGSIFIGNAMGWYRQAPGKERELVAVISKGGGRTYYADSVKGRFTISRDNAKNTVYLQMNSLKPEDSAVYYCNTRNPHRGDYWGQGTQVTVSS”, the “polyreactivity (PSR sort gate)” value is “high polyreactivity”.
Consider “QVQLVESGGGLVQAGGSLRLSCAASGSIFIGYAIGWYRQAPGKERELVAAITNGGRTYFADSVKGRFTISRDNAKNTVYLQMISLKPEDTAVYYCAAVPSQTYRRTPYLWHDYWGQGTQVTVSS”, for which the “polyreactivity (PSR sort gate)” value is on record as “high polyreactivity”.
Next, “QVQLVESGGGLVQAGGSLRLSCAASGSIFIGYAMGWYRQAPGKERELVAAITSGSITNYADSVKGRFTISRDNAKNTVYLQMNSLKPEDTAVYYCAADIYTYLGAYYIGYYWGQGTQVTVSS”: “low polyreactivity”.
As for “QVQLVESGGGLVQAGGSLRLSCAASGSIFIGYARGWYRQAPGKERELVAGISWSGGSTYYADSVKGRFSISRDNAKNTVYLQMNSLKPEDTAVYYCNADITLYYFWAWTYGYYYWGQGTQVTVSS”, the entry is “high polyreactivity”; as for “QVQLVESGGGLVQAGGSLRLSCAASGSIFILNAMGWYRQAPGKERELVAAISSSGGSTYYADSVMGRFTISRDNAKYTDYLQMNSLKPEDSAVYYCAAERNYYFLFPYDSWGQGTQVTVSS”, “high polyreactivity”.
For the sequence “QVQLVESGGGLVQAGGSLRLSCAASGSIFINNAMGWYRQAPGKERELVAAISSSGTTYYADSVKGRFTISRDNAKNSVYLQMNSLKPEDTAVYYCNARYSLHSYYCFIYDSWGQGTKVTVSS”, the “polyreactivity (PSR sort gate)” value was “low polyreactivity”.
With “QVQLVESGGGLVQAGGSLRLSCAASGSIFINYAMGWYRQAPGKERELVAAISKNGGNTYYADSVKGRFTISRDNAKNTVYLQMNSLKPEDTAVYYCNYDYWGQGTQVTVSS”, the “polyreactivity (PSR sort gate)” value is “low polyreactivity”.
In the case of “QVQLVESGGGLVQAGGSLRLSCAASGSIFIPNAMGWYRQAPGKERELVAAISLSDTTTYYADSVKGRFTISRDNAKNTVYLKMNSLKPEDTAVYYCAADYWFYPTSPDMDYLGQGTQVTVSS”, the “polyreactivity (PSR sort gate)” value is “low polyreactivity”.
Next, “QVQLVESGGGLVQAGGSLRLSCAASGSIFIQYAMGWYRQAPGKERELVAAITGSGGSTYYADSVKGRFTISRDNAKNTVYLQMNSLKPEDTAVYYCATEFKRGYVGFDYWGQGTQVTVSS”: “low polyreactivity”; “QVQLVESGGGLVQAGGSLRLSCAASGSIFIRNAMGWYRQAPGKERELVAAITSGGNTYYADSVKGRFTISRDNAKNTVYFQMNSLKPEDTAVWGQGTQVTLSS”: “low polyreactivity”; “QVQLVESGGGLVQAGGSLRLSCAASGSIFISYAMGWYRQAPGKARELVAAISRSGGSTYYADSVKGRFTISRDNAKNTVYLQMNSLKPEDTAVYYCAARSYPGKAGMGYWGQGTQVTVSS”: “high polyreactivity”.
